Substrate in series [1]: O=C(Cc1cccs1)N[C@@H]1C(=O)N2C(C(=O)[O-])=C(C[n+]3ccccc3)CS[C@H]12
The experiment in a line: The compound was tested against Bacteroides fragilis FP784 and its stability towards beta-lactamase relative to cephaloridine was evaluated. It is filed as functional.

Substrate in series [2]: O=C(Cc1cccs1)N[C@@H]1C(=O)N2C(C(=O)[O-])=C(C[n+]3ccccc3)CS[C@H]12
The experiment in a line: The compound was tested against Bacteroides fragilis FP784 and its stability towards beta-lactamase was evaluated. The class given is functional.

What is called Km is the substrate concentration at which the rate is half of its maximum.

B1: Beta-lactamase (Enterobacter cloacae), P05364 (protein)
chain: MMRKSLCCALLLGISCSALATPVSEKQLAEVVANTITPLMKAQSVPGMAVAVIYQGKPHYYTFGKADIAANKPVTPQTLFELGSISKTFTGVLGGDAIARGEISLDDAVTRYWPQLTGKQWQGIRMLDLATYTAGGLPLQVPDEVTDNASLLRFYQNWQPQWKPGTTRLYANASIGLFGALAVKPSGMPYEQAMTTRVLKPLKLDHTWINVPKAEEAHYAWGYRDGKAVRVSPGMLDAQAYGVKTNVQDMANWVMANMAPENVADASLKQGIALAQSRYWRIGSMYQGLGWEMLNWPVEANTVVEGSDSKVALAPLPVAEVNPPAPPVKASWVHKTGSTGGFGSYVAFIPEKQIGIVMLANTSYPNPARVEAAYHILEALQ
As to B1, in series [1], the Vmax was 1. The Km in series [2] turned out to be 31.7 µg/mL.

For the origin of these results see ChEMBL document CHEMBL1132501, “Synthesis and anti-Helicobacter pylori activity of FR182024, a new cephem derivative” (1999).
